Kd, Ki and IC50 data for four compounds are collected here from paper PMC6391409, “A role for Vibrio vulnificus PecS during hypoxia” (Scientific Reports, 2019).

As usually defined, the Kd is the constant that tells how readily two partners part at equilibrium. Low values mean a tighter complex, high ones a looser complex. As usually defined, the Ki is the dissociation constant of the complex between target and ligand, obtained from inhibition or displacement. As usually defined, the IC50 is the midpoint of a concentration-inhibition curve. Read a high IC50 as weaker potency.

In data set [1] the test system is VvPecS (PecS) (Vibrio vulnificus YJ016). Nature of the data set: EMSA. As to conditions: EMSA: 0.5 M Tris pH 8.0, 100 mM NaCl, 6% glycerol, 25 uM EDTA, 0.12% Brij-58, 50 ug BSA, 25 C, 20 min; footprint: 20 mM Tris pH 8.0, 50 mM NaCl, 5 mM MgCl2 …. (Mobility shift assays separate free from complexed probe on a gel.)
For data set [2], the target named is T1, PecS (VvPecS) (Vibrio vulnificus, UniProt A0A3Q0KXQ7).
T1 construct: gene VV2_0325; His6-tagged VvPecS (BJE04_RS19600; old locus tag VVA0819), dimer
The data set is described as follows: EMSA: attenuation of purified VvPecS binding to pecS-pecM intergenic DNA (IC50 […]); supported by SYPRO Orange thermal shift (Tm […] to […] °C).

For data set [3], the system named is VvPecS (PecS) (Vibrio vulnificus YJ016). The data set is described as follows: EMSA. The settings on record: EMSA: 0.5 M Tris pH 8.0, 100 mM NaCl, 6% glycerol, 25 uM EDTA, 0.12% Brij-58, 50 ug BSA, 25 C, 20 min; footprint: 20 mM Tris pH 8.0, 50 mM NaCl, 5 mM MgCl2 …. This is another data set of the same source.
The target of data set [4] is T1, PecS (VvPecS). The data set is described as follows: EMSA: attenuation of purified VvPecS binding to pecS-pecM intergenic DNA (IC50 […]); supported by SYPRO Orange thermal shift (Tm […] to […] °C). The source holds these as a separate data set.

Read-outs that look alike come from different tables or passages of the source.

T1 sequence (A0A3Q0KXQ7 entry or part of it): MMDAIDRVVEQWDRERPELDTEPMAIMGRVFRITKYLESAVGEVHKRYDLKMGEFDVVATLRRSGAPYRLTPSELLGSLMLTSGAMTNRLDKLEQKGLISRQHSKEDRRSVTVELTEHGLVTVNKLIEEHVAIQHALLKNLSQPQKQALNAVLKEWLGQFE

iNR (nsrR-nod intergenic DNA) gave a Kd in data set [1] of 0.218 µM.
As to `O=c1[nH]c(=O)c2[nH]c(=O)[nH]c2[nH]1` [urate], the Ki in data set [2] stood at 226 ± 29 µM.
On to iSM (pecS-pecM intergenic DNA), for which, in data set [1], the half-inhibitory concentration (IC50) amounted to 366 µM and the Kd was found to be 0.0003 µM. In data set [3], this compound registered an IC50 of 1500 µM.
With `O=c1[nH]c(=O)c2[nH]cnc2[nH]1` [xanthine], in data set [4], the Ki came to 60 ± 5 µM.
